From patent US6667052B2, “Transdermal delivery system” (priority 1997, dated 2003)
Entries after “also recorded” stand apart in the source; their conditions may differ. Counter-ions that a name gives are not always drawn. Like-named read-outs stand apart in the source and are kept apart here.

Assays:
[1] = system: rats (Sprague-Dawley strain); experiment: In-vivo evaluation of dermally-applied insulin with oxidant pretreatment: plasma glucose monitoring; design: species or system rat
[2] = system: non-fasted rats (Sprague-Dawley strain); experiment: In-vivo evaluation of dermally-applied insulin after diethyl maleate (DEM) pretreatment: plasma glucose; design: species or system rat; settings: FIG. 3
Experimental: Two non-fasted locally-grown rats (Sprague-Dawley strain) were anesthetized (15 mg/ml pentobarbital sodium, 0.2-0.3 ml i.p.). The rats were placed on their back, the abdominal hair was trimmed off, and then the skin was washed gently with distilled water. The animals were maintained with 0.1 ml pentobarbital 15 mg/ml solution to keep them continuously asleep during the experiment. Diethyl maleate, a glutathion depleting agent, was injected intraperitoneally (0.5 ml, 20% v/v ethanolic solution) to one rat only.
Blood sampling and glucose measurement were performed as described in example 5.

[3] = control rats not pretreated with iodine, dermal insulin
[4] = for applied insulin remained in the cylinder: after 3 hours
Description: Careful attention was paid that the liquid has covered the entire skin area in the cylinder and that no leaking has occurred.

[5] = iodine-pretreated skin exposed for 2 hours to insulin; FIG. 9B
Experimental: The method was performed according to Wroblewski et al (see above) using a reverse phase column (Vydac C18, 250×4.6 mm, 5? m), and a diodearray detector.

GSH = settings: iodine 0.5% to 10% applied; preliminary experiments, FIG. 10

## OO [hydrogen peroxide]
[1]; Example 6: 3 hours oxidant pretreatment (5% silver protein, 0.01% potassium permangnate, 9% hydrogen peroxide or povidone-iodine), then 50 IU Humulin R, FIG. 2
  plasma glucose levels: No glucose reduction

## CCOC(=O)/C=C\C(=O)OCC [DEM, Diethyl maleate]
[2]; DEM 0.5 ml 20% v/v ethanolic solution i.p., then 50 IU Humulin R dermally
  plasma glucose: abrupt reduction

## insulin: human insulin, applied as Humulin R solution for injection, 0.5 ml equivalent to 50 IU
[1]; dermal insulin 50 IU, control rats without oxidant pretreatment
  plasma/blood glucose levels: no reduction; also recorded: not influenced; also recorded: almost the same levels with no change
[3]
  plasma insulin levels: No elevation
[4]; both control and iodine-treated groups
  applied insulin remained in the cylinder: about 77%
[4]; control group (first value)
  applied insulin remained in the cylinder: 76.0±6.6%
[4]; iodine-treated group
  applied insulin remained in the cylinder: 77.3±7.8%
[4]; initial in vivo studies, insulin-containing wells on rat abdominal skin, no oxidant
  insulin quantities in the open wells: significantly decreased
[2]; rat without DEM, 50 IU Humulin R dermally
  plasma glucose: decreased relatively slower
[5]
  insulin form found in skin extract (HPLC): parent insulin was accumulated quantitatively

## II [iodine]
GSH
  iodine concentration at which minimum level of GSH is obtained: about 2%
